In the supplement of paper PMC10567573:
± gives the standard deviation.

Assay: protein stability index of a GFP-peptide fusion (GPS, HEK-293T) (PSI 1-6); higher = more stable
Conditions: c terminus: a fixed tail appended
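Also: 24-mer peptide tiles fused after GFP, lentivirally expressed, FACS-sorted into six equal bins by GFP/DsRed ratio, decoded by Illumina sequencing, PSI is the read-weighted mean bin number.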

Sequence: FQQPAPEYHQPQAPANVAKIQLRL [LOXL2]
- protein stability index (treatment: DMSO): 2.81 ± 0.23
- protein stability index (treatment: MLN4924 1 uM, 8 h): 3.08 ± 0.28

Sequence: SMPVRLLGHSPVLRNITNSQAPDG [CDC25B]
- protein stability index (treatment: DMSO): 3.23 ± 0.22
- protein stability index (treatment: MLN4924 1 uM, 8 h): 3.4 ± 0.24

Sequence: PGCGSVPGSGSGPGPGSGPGSGPG [SPAG8]
- protein stability index (treatment: DMSO): 4.96 ± 0.062
- protein stability index (treatment: MLN4924 1 uM, 8 h): 4.99 ± 0.25

Sequence: PEHRAFGSPFGLEEPQWVPDKECR [ZFYVE21]
- protein stability index (treatment: DMSO): 4.57 ± 0.15
- protein stability index (treatment: MLN4924 1 uM, 8 h): 4.62 ± 0.28

Sequence: AQAHRIHIDPEIQDGSPTTSRRPS [PDLIM4]
- protein stability index (treatment: DMSO): 5.31 ± 0.43
- protein stability index (treatment: MLN4924 1 uM, 8 h): 5.34 ± 0.22

Sequence: LFQILSERQDMYQCLVEGCTEKFK [ZNF511]
- protein stability index (treatment: DMSO): 2.24 ± 0.35
- protein stability index (treatment: MLN4924 1 uM, 8 h): 2.54 ± 0.6

Sequence: NKHLFYAEDFSTMDEISEKLKKGI [MATN2]
- protein stability index (treatment: DMSO): 3.79 ± 0.36
- protein stability index (treatment: MLN4924 1 uM, 8 h): 3.76 ± 0.39

Sequence: AFYDVTGGMSHLHTFRATFQEPLY [TRIM14]
- protein stability index (treatment: DMSO): 2.31 ± 0.25
- protein stability index (treatment: MLN4924 1 uM, 8 h): 2.41 ± 0.5

Sequence: YSHLAYNNYRLGGNPSTNSRVTAS [SMARCE1]
- protein stability index (treatment: DMSO): 3.3 ± 0.34
- protein stability index (treatment: MLN4924 1 uM, 8 h): 3.35 ± 0.18

Sequence: DMWSLGCILVEMHTGEPLFSGSNE [DYRK1B]
- protein stability index (treatment: DMSO): 1.97 ± 0.33
- protein stability index (treatment: MLN4924 1 uM, 8 h): 2.15 ± 0.23

Sequence: RKVVQSLEQTAREILTLLQGVHQG [TSN]
- protein stability index (treatment: DMSO): 2.34 ± 0.31
- protein stability index (treatment: MLN4924 1 uM, 8 h): 2.81 ± 0.53

Sequence: GHLEIVKYLVEHKADLEVSNRHGH [FEM1C]
- protein stability index (treatment: DMSO): 2.7 ± 0.45
- protein stability index (treatment: MLN4924 1 uM, 8 h): 2.94 ± 0.26

Sequence: NQHCLDTAFNFFKMAVSRHLTRGR [BRF1]
- protein stability index (treatment: DMSO): 2.19 ± 0.12
- protein stability index (treatment: MLN4924 1 uM, 8 h): 2.25 ± 0.22

Sequence: SEEIRFYQLGEEAMEKFREDEGFL [KCNA3]
- protein stability index (treatment: DMSO): 4.37 ± 0.27
- protein stability index (treatment: MLN4924 1 uM, 8 h): 4.44 ± 0.12

Sequence: MLGKYNTPVSYRMAKTLVFSKVKT [ACSBG2]
- protein stability index (treatment: DMSO): 2.46 ± 0.31
- protein stability index (treatment: MLN4924 1 uM, 8 h): 2.35 ± 0.23

Sequence: EGKAPIISGVTKAISSPTVSRLTD [TPPP]
- protein stability index (treatment: DMSO): 4.52 ± 0.2
- protein stability index (treatment: MLN4924 1 uM, 8 h): 4.51 ± 0.36

Sequence: RSNVDFLETPELTSTMLVPASWWI [NECAB1]
- protein stability index (treatment: DMSO): 2.21 ± 0.43
- protein stability index (treatment: MLN4924 1 uM, 8 h): 2.23 ± 0.48

Sequence: SAFADIIHSLKESGQLWLDAYLHQ [FADS1]
- protein stability index (treatment: DMSO): 2.16 ± 0.4
- protein stability index (treatment: MLN4924 1 uM, 8 h): 2.25 ± 0.49

Sequence: ARRRVCHTEDFQKEEGTVNGASWH [CPXM2]
- protein stability index (treatment: DMSO): 4.57 ± 0.16
- protein stability index (treatment: MLN4924 1 uM, 8 h): 4.71 ± 0.84

Sequence: QTALLESSCENKRADLVFIIDSSR [MATN2]
- protein stability index (treatment: DMSO): 3.05 ± 0.24
- protein stability index (treatment: MLN4924 1 uM, 8 h): 3.24 ± 0.28

Sequence: VQEAVLDKWVNDPHRMDRRLLALI [GOLPH3]
- protein stability index (treatment: DMSO): 2.29 ± 0.18
- protein stability index (treatment: MLN4924 1 uM, 8 h): 2.52 ± 0.17

Sequence: IEILPNVCYTACATLKGPDSHYGT [BTBD1]
- protein stability index (treatment: DMSO): 2.26 ± 0.19
- protein stability index (treatment: MLN4924 1 uM, 8 h): 2.31 ± 0.2

Sequence: RYLFEEDNLLRSTQKLSHSTKPSG [MATN2]
- protein stability index (treatment: DMSO): 3.82 ± 0.3
- protein stability index (treatment: MLN4924 1 uM, 8 h): 3.92 ± 0.3

Sequence: RMKEPSSPPPAPTSSTFGLQDGNL [CHCHD6]
- protein stability index (treatment: DMSO): 4.63 ± 0.26
- protein stability index (treatment: MLN4924 1 uM, 8 h): 4.53 ± 0.35

Sequence: MYEMLIGYPPFCSETPQETYRKVM [STK38L]
- protein stability index (treatment: DMSO): 2.2 ± 0.33
- protein stability index (treatment: MLN4924 1 uM, 8 h): 2.1 ± 0.3

Sequence: GRGGRDRFTAESYTVLGDTLIDGG [FSD1]
- protein stability index (treatment: DMSO): 4.06 ± 0.26
- protein stability index (treatment: MLN4924 1 uM, 8 h): 4.08 ± 0.52

Sequence: LGSSAASTALERPSFLSQTGHGVS [FCHO1]
- protein stability index (treatment: DMSO): 4.28 ± 0.45
- protein stability index (treatment: MLN4924 1 uM, 8 h): 4.2 ± 0.24

Sequence: ESRACLERIQELEDLLAKEKDNSR [LMNB1]
- protein stability index (treatment: DMSO): 5.04 ± 0.46
- protein stability index (treatment: MLN4924 1 uM, 8 h): 5.15 ± 0.27

Sequence: APVSRGRDSYGGPPRREPLPSRRD [RBMX]
- protein stability index (treatment: DMSO): 5.12 ± 0.21
- protein stability index (treatment: MLN4924 1 uM, 8 h): 4.93 ± 0.22

Sequence: EGPALVEIDRSVENTLLNSQMVST [MIA2]
- protein stability index (treatment: DMSO): 4.54 ± 0.26
- protein stability index (treatment: MLN4924 1 uM, 8 h): 4.63 ± 0.22

Sequence: DEDDEDEDEDEDEDEDEDKEEEEE [TAF7L]
- protein stability index (treatment: DMSO): 5.46 ± 0.4
- protein stability index (treatment: MLN4924 1 uM, 8 h): 5.51 ± 0.1

Sequence: NISDADVHNAMDNYECNLYTFLYL [FEM1B]
- protein stability index (treatment: DMSO): 2.25 ± 0.66
- protein stability index (treatment: MLN4924 1 uM, 8 h): 2.42 ± 0.45
